Data taken from article PMC12738837, “Structure of Trypanosoma peroxisomal import complex unveils conformational heterogeneity” (Nature Communications, 2025).
Positions count from the first letter of the chain named. Where “and” joins values, the source holds several entries; their conditions need not be identical. Equal entries are not always repeated.

T1: Pex5_(eTPR)(P490R) (Trypanosoma cruzi, UniProt Q4DPQ9 316-668, P490R)
T1 construct: source: E. coli BL21 (DE3), purified as wild type (Ni-NTA, SEC)
T1 sequence: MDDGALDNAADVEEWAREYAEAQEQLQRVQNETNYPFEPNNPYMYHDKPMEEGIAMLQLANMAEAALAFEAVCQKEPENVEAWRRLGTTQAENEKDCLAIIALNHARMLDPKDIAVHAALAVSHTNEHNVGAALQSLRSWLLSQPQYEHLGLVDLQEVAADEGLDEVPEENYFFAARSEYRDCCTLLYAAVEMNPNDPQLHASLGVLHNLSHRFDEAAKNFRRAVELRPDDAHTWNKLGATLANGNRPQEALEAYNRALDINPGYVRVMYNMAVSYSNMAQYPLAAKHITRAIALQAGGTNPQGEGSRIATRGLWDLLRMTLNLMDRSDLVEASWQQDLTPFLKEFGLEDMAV

T2: Pex5_(eTPR)(R625A, D629A) (Trypanosoma cruzi, UniProt Q4DPQ9 316-668, R625A | D629A)
T2 construct: source: E. coli BL21 (DE3), purified as wild type (Ni-NTA, SEC)
T2 sequence: T1 sequence with R177P, R312A, D316A

B1: glycosomal malate dehydrogenase (MDH, residues 1–323) (enzyme, Trypanosoma cruzi, UniProt Q4DRD8 1-323, looked up)
chain: MVNVAVIGAAGGIGQSLSLLLLRELPFGSTLSLYDVVGAPGVAADLSHIDRAGITVKHAAGKLPPVPRDPALTELAEGVDVFVIVAGVPRKPGMTRDDLFNVNAGIVMDLVLTCASVSPNACFCIVTNPVNSTTPIAAQTLRKIGVYNKNKLLGVSLLDGLRATRFINNARHPLVVPYVPVVGGHSDVTIVPLYSQIPGPLPDESTLKEIRKRVQVAGTEVVKAKAGRGSATLSMAEAGARFTMHVVKALMGLDTPMVYAYVDTDGEHECPFLAMPVVLGKNGIERRLPIGPITTVEKEMLEEAVGVVKKNIAKGETFARSKL
notes: glycosomal malate dehydrogenase (MDH), Trypanosoma cruzi, residues 1-323, UniProt Q4DRD8; Tetramer (two dimers related by D2 symmetry) by cryo-EM; also called cargo; MDH tetramer; source: E. coli BL21 (DE3), purified (Ni-NTA, SEC)
B2: full length Pex5 (residues 1–666) (receptor, Trypanosoma cruzi, UniProt Q4DPQ9 1-668, looked up)
chain: MDCSTGAAIGQQFAKDAFHMHGGVGVGPTGNPEHDVLMNEMMMVQTPTGPAGEWTHQFAAYQGKQQQQHPQELAMRHQQNDALMLRQQQEMEEAFCTLCAAHPHSHAHSHAHSHQPQGLVGPAMMGPQIMPPMMFGPGSGGFMMGTPPMMPYASMKFAGDAAMAAANNTTMTQGATATSTTSVQQEQQQQQSSDNGWVEKLRDAEWAQDYSDAQVFTLEGQSEQTMEEHAKNSEFYQFMDKIRSKELLIDEETGQLVQGPGPDPDAPEDAEYLKEWAAAEGLNMPPGFFEHMMQRPQGNNEQAEGRLFDGSNDALMDDGALDNAADVEEWAREYAEAQEQLQRVQNETNYPFEPNNPYMYHDKPMEEGIAMLQLANMAEAALAFEAVCQKEPENVEAWRRLGTTQAENEKDCLAIIALNHARMLDPKDIAVHAALAVSHTNEHNVGAALQSLRSWLLSQPQYEHLGLVDLQEVAADEGLDEVPEENYFFAAPSEYRDCCTLLYAAVEMNPNDPQLHASLGVLHNLSHRFDEAAKNFRRAVELRPDDAHTWNKLGATLANGNRPQEALEAYNRALDINPGYVRVMYNMAVSYSNMAQYPLAAKHITRAIALQAGGTNPQGEGSRIATRGLWDLLRMTLNLMDRSDLVEASWQQDLTPFLKEFGLEDMAV
notes: Pex5, Trypanosoma cruzi, full length, residues 1-666, GenBank PBJ69826.1; Contains three Wxxx(F/Y) motifs; source: E. coli BL21 (DE3), purified (Ni-NTA, SEC)

Assays:
[1] = biological target: the molecule itself; assay: cryo-EM structure; ternary complex: purified MDH (tetramer), full-length Pex5 and Pex14NTD mixed at 1:4:12, overnight at 4 °C, separated on Superose6 10/300, vitrified at ~0.75 mg/mL; no cross-linking; MDH alone solved from the same dataset
[2] = biological target: Pex5_(eTPR) (residues 314–666), truncated Pex5 containing an extended TPR domain with a single Wxxx(F/Y) motif (Trypanosoma cruzi, UniProt Q4DPQ9 316-668); assay: ITC; Pex5_(eTPR) (250 μM) injected into MDH (25 μM) in the cell; 100 mM Hepes, 150 mM NaCl, 2 mM β-mercaptoethanol, pH 7.5; 25 °C; conditions: both partners purified
[3] = biological target: T1, Pex5_(eTPR)(P490R); assay: as above; conditions: both partners purified
[4] = biological target: T2, Pex5_(eTPR)(R625A, D629A); assay: as above; conditions: both partners purified
[5] = biological target: B1; assay: cryo-EM structure; ternary complex: purified MDH (tetramer), full-length Pex5 and Pex14NTD mixed at 1:4:12, overnight at 4 °C, separated on Superose6 10/300, vitrified at ~0.75 mg/mL; no cross-linking; MDH alone solved from the same dataset; conditions: both partners purified
[6] = biological target: 6-FAM labeled PTS1 peptide; assay: fluorescence polarisation

In the case of B1, the “stoichiometry N” value [1] is reported as 4, the Kd [2] is reported as 435 ± 80 nM and the Kd [3] is reported as 1390 ± 226 nM. It also gave a Kd [4] of 453 ± 64 nM.

B2 was tested, and the “stoichiometry N” value [5] was 1 Pex5 per MDH tetramer and 2 Pex5 per MDH tetramer and the Kd [6] was 88 nM.
